The chains are these.
T1: EcAIII α subunit (∼20 kDa) (Escherichia coli, UniProt P37595 1-178)
T1 construct: EcAIII of Escherichia coli, α subunit: cut product of the precursor up to the scissile bond Gly178-Thr179; the linker is partly degraded, residues 158-178 are not visible in the structures; also called subunit α; source: E. coli BL21 Gold, purified (DEAE-Sepharose, SEC); formed by autocleavage of the precursor
T1 sequence (looked up): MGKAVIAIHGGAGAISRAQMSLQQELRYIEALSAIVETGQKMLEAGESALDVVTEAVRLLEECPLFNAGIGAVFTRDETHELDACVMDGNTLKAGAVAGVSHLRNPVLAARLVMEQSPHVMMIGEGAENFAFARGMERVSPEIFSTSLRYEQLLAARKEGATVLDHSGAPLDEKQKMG

B1: wild-type EcAIII, mature (αβ)2 heterotetramer (class 2 L-asparaginase of Escherichia coli) (complex)
chain 1: T1 sequence (looked up)
chain 2: TVGAVALDLDGNLAAATSTGGMTNKLPGRVGDSPLVGAGCYANNASVAVSCTGTGEVFIRALAAYDIAALMDYGGLSLAEACERVVMEKLPALGGSGGLIAIDHEGNVALPFNTEGMYRAWGYAGDTPTTGIYREKGDTVATQ
notes: EcAIII of Escherichia coli, α subunit: cut product of the precursor up to the scissile bond Gly178-Thr179; the linker is partly degraded, residues 158-178 are not visible in the structures; EcAIII of Escherichia coli, β subunit: cut product of the precursor beginning at the nucleophilic Thr179; Gene in pET-11d; no tag is mentioned; Dimer of two αβ heterodimers formed by autocleavage of the …
B2: EcAIII variant RDM1-38, mature (processed into α/β subunits) (complex, Escherichia coli)
chain 1: T1 sequence (looked up)
chain 2: B1 chain 2 with R29C, D32S, S33V
notes: EcAIII of Escherichia coli, α subunit: cut product up to the scissile bond Gly178-Thr179; residues 158-178 not visible in the structure; EcAIII of Escherichia coli, β subunit beginning at Thr179, with the substitutions of RDM1-38; source: E. coli BL21 Gold, purified (DEAE-Sepharose, SEC); copies: 2 + 2
B3: EcAIII variant RDM1-24, mature (processed into α/β subunits) (complex, Escherichia coli)
chain 1: T1 sequence (looked up)
chain 2: B1 chain 2 with R29A, D32S, S33T
notes: EcAIII of Escherichia coli, α subunit: cut product up to the scissile bond Gly178-Thr179; residues 158-178 not visible in the structure; EcAIII of Escherichia coli, β subunit beginning at Thr179, with the substitutions of RDM1-24; source: E. coli BL21 Gold, purified (DEAE-Sepharose, SEC); copies: 2 + 2
B4: EcAIII variant RDM1-3, mature (processed into α/β subunits) (complex, Escherichia coli)
chain 1: T1 sequence (looked up)
chain 2: B1 chain 2 with G28H, R29T, D32P, S33Q
notes: EcAIII of Escherichia coli, α subunit: cut product up to the scissile bond Gly178-Thr179; residues 158-178 not visible in the structure; EcAIII of Escherichia coli, β subunit beginning at Thr179, with the substitutions of RDM1-3; source: E. coli BL21 Gold, purified (DEAE-Sepharose, SEC); copies: 2 + 2
B5: EcAIII variant RDM1-37, mature (processed into α/β subunits) (complex, Escherichia coli)
chain 1: T1 sequence (looked up)
chain 2: B1 chain 2 with G28S, R29T, D32S
notes: EcAIII of Escherichia coli, α subunit: cut product up to the scissile bond Gly178-Thr179; residues 158-178 not visible in the structure; EcAIII of Escherichia coli, β subunit beginning at Thr179, with the substitutions of RDM1-37 (Ser211 kept); source: E. coli BL21 Gold, purified (DEAE-Sepharose, SEC); copies: 2 + 2
B6: EcAIII variant RDM1-29, mature (processed into α/β subunits) (complex, Escherichia coli)
chain 1: T1 sequence (looked up)
chain 2: B1 chain 2 with G28C, R29S, D32L, S33V
notes: EcAIII of Escherichia coli, α subunit: cut product up to the scissile bond Gly178-Thr179; residues 158-178 not visible in the structure; EcAIII of Escherichia coli, β subunit beginning at Thr179, with the substitutions of RDM1-29; source: E. coli BL21 Gold, purified (DEAE-Sepharose, SEC); copies: 2 + 2
B7: EcAIII variant RDM1-18, mature (processed into α/β subunits) (complex, Escherichia coli)
chain 1: T1 sequence (looked up)
chain 2: B1 chain 2 with R29V, D32P, S33W
notes: EcAIII of Escherichia coli, α subunit: cut product up to the scissile bond Gly178-Thr179; residues 158-178 not visible in the structure; source: E. coli BL21 Gold, purified (DEAE-Sepharose, SEC); copies: 2 + 2
B8: EcAIII variant RDM1-12, mature (processed into α/β subunits) (complex, Escherichia coli)
chain 1: T1 sequence (looked up)
chain 2: B1 chain 2 with G28C, R29T, D32A, S33A
notes: EcAIII of Escherichia coli, α subunit: cut product up to the scissile bond Gly178-Thr179; residues 158-178 not visible in the structure; EcAIII of Escherichia coli, β subunit beginning at Thr179, with the substitutions of RDM1-12; source: E. coli BL21 Gold, purified (DEAE-Sepharose, SEC); copies: 2 + 2
B9: EcAIII β subunit (∼15 kDa), wild type (domain or fragment, Escherichia coli, UniProt P37595 179-321, looked up)
chain: B1 chain 2
notes: EcAIII of Escherichia coli, β subunit: cut product of the precursor beginning at the nucleophilic Thr179; also called subunit β; source: E. coli BL21 Gold, purified (DEAE-Sepharose, SEC); formed by autocleavage of the precursor
B10: EcAIII β subunit of variant RDM1-37 (domain or fragment, Escherichia coli, UniProt P37595 179-321, looked up)
chain: B1 chain 2 with G28S, R29T, D32S
notes: EcAIII of Escherichia coli, β subunit beginning at Thr179, with the substitutions of RDM1-37 (Ser211 kept); also called RDM1-37 β subunit; source: E. coli BL21 Gold, purified (DEAE-Sepharose, SEC); formed by autocleavage of the precursor
B11: EcAIII β subunit of variant RDM1-3 (domain or fragment, Escherichia coli, UniProt P37595 179-321, looked up)
chain: B1 chain 2 with G28H, R29T, D32P, S33Q
notes: EcAIII of Escherichia coli, β subunit beginning at Thr179, with the substitutions of RDM1-3; also called RDM1-3 β subunit; source: E. coli BL21 Gold, purified (DEAE-Sepharose, SEC); formed by autocleavage of the precursor
B12: EcAIII β subunit of variant RDM1-12 (domain or fragment, Escherichia coli, UniProt P37595 179-321, looked up)
chain: B1 chain 2 with G28C, R29T, D32A, S33A
notes: EcAIII of Escherichia coli, β subunit beginning at Thr179, with the substitutions of RDM1-12; also called RDM1-12 β subunit; source: E. coli BL21 Gold, purified (DEAE-Sepharose, SEC); formed by autocleavage of the precursor
B13: EcAIII β subunit of variant RDM1-18 (domain or fragment, Escherichia coli, UniProt P37595 179-321, looked up)
chain: B1 chain 2 with R29V, D32P, S33W
notes: also called RDM1-18 β subunit; source: E. coli BL21 Gold, purified (DEAE-Sepharose, SEC); formed by autocleavage of the precursor
B14: EcAIII β subunit of variant RDM1-29 (domain or fragment, Escherichia coli, UniProt P37595 179-321, looked up)
chain: B1 chain 2 with G28C, R29S, D32L, S33V
notes: EcAIII of Escherichia coli, β subunit beginning at Thr179, with the substitutions of RDM1-29; also called RDM1-29 β subunit; source: E. coli BL21 Gold, purified (DEAE-Sepharose, SEC); formed by autocleavage of the precursor
B15: EcAIII β subunit of variant RDM1-24 (domain or fragment, Escherichia coli, UniProt P37595 179-321, looked up)
chain: B1 chain 2 with R29A, D32S, S33T
notes: EcAIII of Escherichia coli, β subunit beginning at Thr179, with the substitutions of RDM1-24; also called RDM1-24 β subunit; source: E. coli BL21 Gold, purified (DEAE-Sepharose, SEC); formed by autocleavage of the precursor
B16: EcAIII β subunit of variant RDM1-38 (domain or fragment, Escherichia coli, UniProt P37595 179-321, looked up)
chain: B1 chain 2 with R29C, D32S, S33V
notes: EcAIII of Escherichia coli, β subunit beginning at Thr179, with the substitutions of RDM1-38; also called RDM1-38 β subunit; source: E. coli BL21 Gold, purified (DEAE-Sepharose, SEC); formed by autocleavage of the precursor
B17: EcAIII variant RDM1-43, unprocessed immature precursor (enzyme, Escherichia coli, UniProt P37595 1-321, looked up)
chain: MGKAVIAIHGGAGAISRAQMSLQQELRYIEALSAIVETGQKMLEAGESALDVVTEAVRLLEECPLFNAGIGAVFTRDETHELDACVMDGNTLKAGAVAGVSHLRNPVLAARLVMEQSPHVMMIGEGAENFAFARGMERVSPEIFSTSLRYEQLLAARKEGATVLDHSGAPLDEKQKMGTVGAVALDLDGNLAAATSTGGMTNKLPVGVGSSPLVGAGCYANNASVAVSCTGTGEVFIRALAAYDIAALMDYGGLSLAEACERVVMEKLPALGGSGGLIAIDHEGNVALPFNTEGMYRAWGYAGDTPTTGIYREKGDTVATQ
notes: EcAIII of Escherichia coli, uncleaved immature precursor (α and β on one chain, linker intact), with the substitutions of RDM1-43 (Ser211 kept); No ability to process into α/β subunits; EcAIII gene in pET-11d; source: E. coli BL21 Gold, purified (DEAE-Sepharose, SEC)
B18: EcAIII variant RDM1-46, unprocessed immature precursor (enzyme, Escherichia coli, UniProt P37595 1-321, looked up)
chain: B17 chain with V206L, G207D, S210L
notes: EcAIII of Escherichia coli, uncleaved immature precursor (α and β on one chain, linker intact), with the substitutions of RDM1-46 (Ser211 kept); No ability to process into α/β subunits; EcAIII gene in pET-11d; source: E. coli BL21 Gold, purified (DEAE-Sepharose, SEC)
B19: EcAIII variant RDM1-64, unprocessed immature precursor (enzyme, Escherichia coli, UniProt P37595 1-321, looked up)
chain: B17 chain with V206I, G207V, S210I, S211G
notes: EcAIII of Escherichia coli, uncleaved immature precursor (α and β on one chain, linker intact), with the substitutions of RDM1-64; No ability to process into α/β subunits; EcAIII gene in pET-11d; source: E. coli BL21 Gold, purified (DEAE-Sepharose, SEC)

Changes are numbered by the printed parent chain.

One data set concerns the molecule itself. Description: crystal structure; hanging-drop vapor diffusion at 20°C; 20–30% PEG 4000 or PEG 6000, 0.2 M MgCl2, 100 mM Tris–HCl pH 8.5; protein 10–15 mg/ml; space group P212121.
Conditions: not given
On to B1, for which the binding result is recorded as “binds”. On the same count and under the same terms, the value for B2 was “binds”. Same read-out and setting: for B3 the value was “binds”; for B4, “binds”; for B5, “binds”. The same measure, in the same setting: the value for B6 was “binds”; that for B7 was “binds”; that for B8 was “binds”.

For the next data set, the target named is T1, EcAIII α subunit (∼20 kDa). The data set is described as above. The conditions noted are these: both partners purified.
On to B9, for which the binding result is “binds”. On to B10, for which the binding result is “binds”. Still for that read-out and setting: for B11 the value was “binds”; for B12, “binds”; for B13, “binds”. On the same count and under the same terms, the value for B14 was “binds”; that for B15 was “binds”.

Take B16: the binding result is reported as “binds”.

The next data set deals with the molecule itself. As to the kind of experiment: SEC; SEC profiles of Supplementary Fig. S4; before biophysical measurements proteins were run on Superdex 75 10/300 GL in 20 mM phosphate buffer pH 7.5.
Conditions: not given
(SEC sorts molecules by how far they enter the pores of the column.)
Regarding B17, the binding result was “binds”. On the same count and under the same terms, the value for B18 was “binds”.

With B19, the binding result was “binds”.
